# Results from PMC5122770, “Homodimerization of the Lymph Vessel Endothelial Receptor LYVE-1 through a Redox-labile Disulfide Is Critical for Hyaluronan Binding in Lymphatic Endothelium*^([image sbox.jpg])” (The Journal of Biological Chemistry, 2016).
# Legend:
# [1] = molecular target: the molecule itself; assay: non-reducing SDS-PAGE with Western blot; CHO cell-derived soluble protein dissolved in LDS sample buffer with NEM; non-reducing
# [2] = molecular target: the molecule itself; assay: non-reducing SDS-PAGE with Western blot; freshly resected mouse ear skin and lymph node, minced and lysed with 5 mM NEM; non-reducing
# [3] = molecular target: the molecule itself; assay: non-reducing SDS-PAGE with Western blot; mouse liver and lung tissue, minced and lysed with 5 mM NEM; non-reducing
# [4] = molecular target: the molecule itself; assay: non-reducing SDS-PAGE with Western blot; whole cell lysate of primary HDLEC lysed without NEM; non-reducing; polyclonal LYVE-1 antibody
# [5] = molecular target: the molecule itself; assay: non-reducing SDS-PAGE with Western blot; cells lysed in LDS sample buffer with 5 mM NEM; non-reducing; polyclonal LYVE-1 antibody, densitometry (Licor Odyssey)
protein,measurement,setting,value
"hLYVE-1 Δ238 His10 (soluble full ectodomain, wild type) (domain or fragment, human, UniProt Q9Y5Y7 20-238, looked up, signal peptide in the construct (forward primer begins 14 nt before the start ATG); LYVE-1, human, full-length extracellular domain terminating after residue number 238; secreted from CHO cells; Recovered as a mixture of monomers and disulfide-linked dimers; the homodimer was separated by multiple rounds of size exclusion chromatography; also called soluble hLYVE-1 ectodomain; WT LYVE-1 His10; …) LVQGSLRAEELSIQVSCRIMGITLVSKKANQQLNFTEAKEACRLLGLSLAGKDQVETALKASFETCSYGWVGDGFVVISRISPNPKCGKNGVGVLIWKVPVSRQFAAYCYNSSDTWTNSCIPEIITTKDPIFNTQTATQTTEFIVSDSTYSVASPYSTIPAPTTTPPAPASTSIPRRKKLICVTEVFMETSTMSTETEPFVENKAAFKNEAAGFGGVPT",binding result,[1],binds
"mouse LYVE-1 (native receptor in mouse tissues) (receptor, mouse (endogenous in mouse tissues), UniProt Q8BHC0 24-318, looked up, LYVE-1, mouse, endogenous in tissue lysates; source: endogenous, lysates of freshly resected mouse ear skin, lymph node, liver and lung) ADLVQDLSISTCRIMGVALVGRNKNPQMNFTEANEACKMLGLTLASRDQVESAQKSGFETCSYGWVGEQFSVIPRIFSNPRCGKNGKGVLIWNAPSSQKFKAYCHNSSDTWVNSCIPEIVTTFYPVLDTQTPATEFSVSSSAYLASSPDSTTPVSATTRAPPLTSMARKTKKICITEVYTEPITMATETEAFVASGAAFKNEAAGFGGVPTALLVLALLFFGAAAVLAVCYVKRYVKAFPFTTKNQQKEMIETKVVKEEKADDVNANEESKKTIKNPEEAKSPPKTTVRCLEAEV",stoichiometry N,[2],2
same,homodimer:monomer ratio,[3],~2 homodimer:monomer
"LYVE-1 (native receptor in primary human dermal lymphatic endothelial cells) (receptor, human (endogenous in HDLEC), UniProt Q9Y5Y7 20-322, looked up, LYVE-1, human, endogenous receptor of primary human dermal lymphatic endothelial cells; glycosylated; also called lymphatic vessel endothelial receptor LYVE-1; hLYVE-1; source: endogenous, primary HDLEC whole cell lysate) LVQGSLRAEELSIQVSCRIMGITLVSKKANQQLNFTEAKEACRLLGLSLAGKDQVETALKASFETCSYGWVGDGFVVISRISPNPKCGKNGVGVLIWKVPVSRQFAAYCYNSSDTWTNSCIPEIITTKDPIFNTQTATQTTEFIVSDSTYSVASPYSTIPAPTTTPPAPASTSIPRRKKLICVTEVFMETSTMSTETEPFVENKAAFKNEAAGFGGVPTALLVLALLFFGAAAGLGFCYVKRYVKAFPFTNKNQQKEMIETKVVKEEKANDSNPNEESKKTDKNPEESKSPSKTTVRCLEAEV",stoichiometry N,[4],2
"full-length wild-type hLYVE-1 (in HEK 293T cells) (receptor, human, UniProt Q9Y5Y7 20-322, looked up, also called wild-type receptor; source: HEK 293T, transfected, in lysate) LVQGSLRAEELSIQVSCRIMGITLVSKKANQQLNFTEAKEACRLLGLSLAGKDQVETALKASFETCSYGWVGDGFVVISRISPNPKCGKNGVGVLIWKVPVSRQFAAYCYNSSDTWTNSCIPEIITTKDPIFNTQTATQTTEFIVSDSTYSVASPYSTIPAPTTTPPAPASTSIPRRKKLICVTEVFMETSTMSTETEPFVENKAAFKNEAAGFGGVPTALLVLALLFFGAAAGLGFCYVKRYVKAFPFTNKNQQKEMIETKVVKEEKANDSNPNEESKKTDKNPEESKSPSKTTVRCLEAEV",dimer:monomer ratio,[5],2 dimer:monomer
